Changes are numbered by the printed parent chain. Values joined by “and” are separate entries in the source; they are usually repeats but may differ in a detail not shown here. Equal entries are not always repeated. Where two headings read alike, the source gives them in different places.
B1: 15F9-PEG3-ASF: Ab-UAA 15F9 conjugated to ASF-PEG3-DBCO (conjugate)
VH: EVQLVESGGGLVQPGGSLRLSCAASGFTFSKFWMHWVRQAPGKGLEWVSSISSSSSYIYYADSVKGRFTISADTSKNTAYLQMNSLRAEDTAVYYCARDPISTGAFDIWGQGTLVTVSS
VL: DIQMTQSPSSLSASVGDRVTITCRASQSISSWLAWYQQKPGKAPKLLIYDASSLESGVPSRFSGSRSGTDFTLTISSLQPEDFATYYCQQXYTTPPTFGQGTKLEI
modifications: non-natural residues
notes: Ab-UAA 15F9 conjugated to ASF-PEG3-DBCO
B2: 15F7-PEG3-ASF: Ab-UAA 15F7 conjugated to ASF-PEG3-DBCO (conjugate)
VH: EVQLVESGGGLVQPGGSLRLSCAASGFTFSGHWMHWVRQAPGKGLEWVSAISGSGGSTYYADSVKGRFTISADTSKNTAYLQMNSLRAEDTAVYYCAREVTMVRGVTDAFDIWGQGTLVTVSS
VL: B1 VL with S28G, W32D, A34G, A51V, S53N, L54V, E55Q, S56T
modifications: non-natural residues
notes: Ab-UAA 15F7 conjugated to ASF-PEG3-DBCO
B3: A4-PEG3-ASF: IgG1 Ab-UAA A4 conjugated with ASF-PEG3-DBCO (conjugate)
VH: EVQLVESGGGLVQPGGSLRLSCAASGFTFSGHWMHWVRQAPGKGLEWVSGISGSGGSTYYADSVKGRFTISADTSKNTAYLQMNSLRAEDTAVYYCARELTMATTTDAFDIWGQGTLVTVSS
VL: B1 VL with R24Q, S28D, S30R, S31N, W32D, A34N, L46S, D50A, S53R, E55Q
modifications: non-natural residues
notes: IgG1 Ab-UAA A4 conjugated with ASF-PEG3-DBCO
B4: H3-PEG3-ASF: IgG1 Ab-UAA H3 conjugated with ASF-PEG3-DBCO (conjugate)
VH: EVQLVESGGGLVQPGGSLRLSCAASGFTFSDYWISWVRQAPGKGLEWIGNVYYSGNAYYNPSLESRVTISADTSKNTAYLQMNSLRAEDTAVYYCARNTGFETLDNWGQGTLVTVSS
VL: B1 VL with K45N, I48M, D50A, E55Q
modifications: non-natural residues
notes: IgG1 Ab-UAA H3 conjugated with ASF-PEG3-DBCO
B5: 15C12-PEG3-ASF: Ab-UAA 15C12 conjugated to ASF-PEG3-DBCO (conjugate)
VH: B3 VH with G50A, T104S, I111F
VL: B1 VL with R24Q, S28D, S31N, W32S, A34N, K45N, D50A, A51T, S53N, E55Q
modifications: not fully specified; non-natural residues
notes: Ab-UAA 15C12 conjugated to ASF-PEG3-DBCO
B6: 15A10-PEG3-ASF: Ab-UAA 15A10 conjugated to ASF-PEG3-DBCO (conjugate)
VH: EVQLVESGGGLVQPGGSLRLSCAASGFPFSGHWMHWVRQAPGKGLEWVSGISGTGATSHYADSVKGRFTISADTSKNTAYLQMNSLRAEDTAVYYCAREVITAASTDAFDLWGQGTLVTVSS
VL: B1 VL with S30G, W32S, A34H, K45T, L46V, D50A, E55Q, S56T
modifications: not fully specified; non-natural residues
notes: Ab-UAA 15A10 conjugated to ASF-PEG3-DBCO

Biological target: T1, NaV1.7 (Homo sapiens, UniProt Q15858)
T1 construct: expressed in transfected cells; host or cells: HEK293
Experiment: Whole-cell patch clamp, HEK293-NaV1.7 cells
Format: cell-based

[1] = competitive screening clones, read-out: IC50 ± SEM of NaV1.7-selective Ab-ASF
[2] = non-competitive screening clones, 15 min incubation, read-out: IC50 ± SEM (nM) of Ab-PEG3-ASF in inhibiting NaV1.7

T1 sequence (Q15858 whole entry): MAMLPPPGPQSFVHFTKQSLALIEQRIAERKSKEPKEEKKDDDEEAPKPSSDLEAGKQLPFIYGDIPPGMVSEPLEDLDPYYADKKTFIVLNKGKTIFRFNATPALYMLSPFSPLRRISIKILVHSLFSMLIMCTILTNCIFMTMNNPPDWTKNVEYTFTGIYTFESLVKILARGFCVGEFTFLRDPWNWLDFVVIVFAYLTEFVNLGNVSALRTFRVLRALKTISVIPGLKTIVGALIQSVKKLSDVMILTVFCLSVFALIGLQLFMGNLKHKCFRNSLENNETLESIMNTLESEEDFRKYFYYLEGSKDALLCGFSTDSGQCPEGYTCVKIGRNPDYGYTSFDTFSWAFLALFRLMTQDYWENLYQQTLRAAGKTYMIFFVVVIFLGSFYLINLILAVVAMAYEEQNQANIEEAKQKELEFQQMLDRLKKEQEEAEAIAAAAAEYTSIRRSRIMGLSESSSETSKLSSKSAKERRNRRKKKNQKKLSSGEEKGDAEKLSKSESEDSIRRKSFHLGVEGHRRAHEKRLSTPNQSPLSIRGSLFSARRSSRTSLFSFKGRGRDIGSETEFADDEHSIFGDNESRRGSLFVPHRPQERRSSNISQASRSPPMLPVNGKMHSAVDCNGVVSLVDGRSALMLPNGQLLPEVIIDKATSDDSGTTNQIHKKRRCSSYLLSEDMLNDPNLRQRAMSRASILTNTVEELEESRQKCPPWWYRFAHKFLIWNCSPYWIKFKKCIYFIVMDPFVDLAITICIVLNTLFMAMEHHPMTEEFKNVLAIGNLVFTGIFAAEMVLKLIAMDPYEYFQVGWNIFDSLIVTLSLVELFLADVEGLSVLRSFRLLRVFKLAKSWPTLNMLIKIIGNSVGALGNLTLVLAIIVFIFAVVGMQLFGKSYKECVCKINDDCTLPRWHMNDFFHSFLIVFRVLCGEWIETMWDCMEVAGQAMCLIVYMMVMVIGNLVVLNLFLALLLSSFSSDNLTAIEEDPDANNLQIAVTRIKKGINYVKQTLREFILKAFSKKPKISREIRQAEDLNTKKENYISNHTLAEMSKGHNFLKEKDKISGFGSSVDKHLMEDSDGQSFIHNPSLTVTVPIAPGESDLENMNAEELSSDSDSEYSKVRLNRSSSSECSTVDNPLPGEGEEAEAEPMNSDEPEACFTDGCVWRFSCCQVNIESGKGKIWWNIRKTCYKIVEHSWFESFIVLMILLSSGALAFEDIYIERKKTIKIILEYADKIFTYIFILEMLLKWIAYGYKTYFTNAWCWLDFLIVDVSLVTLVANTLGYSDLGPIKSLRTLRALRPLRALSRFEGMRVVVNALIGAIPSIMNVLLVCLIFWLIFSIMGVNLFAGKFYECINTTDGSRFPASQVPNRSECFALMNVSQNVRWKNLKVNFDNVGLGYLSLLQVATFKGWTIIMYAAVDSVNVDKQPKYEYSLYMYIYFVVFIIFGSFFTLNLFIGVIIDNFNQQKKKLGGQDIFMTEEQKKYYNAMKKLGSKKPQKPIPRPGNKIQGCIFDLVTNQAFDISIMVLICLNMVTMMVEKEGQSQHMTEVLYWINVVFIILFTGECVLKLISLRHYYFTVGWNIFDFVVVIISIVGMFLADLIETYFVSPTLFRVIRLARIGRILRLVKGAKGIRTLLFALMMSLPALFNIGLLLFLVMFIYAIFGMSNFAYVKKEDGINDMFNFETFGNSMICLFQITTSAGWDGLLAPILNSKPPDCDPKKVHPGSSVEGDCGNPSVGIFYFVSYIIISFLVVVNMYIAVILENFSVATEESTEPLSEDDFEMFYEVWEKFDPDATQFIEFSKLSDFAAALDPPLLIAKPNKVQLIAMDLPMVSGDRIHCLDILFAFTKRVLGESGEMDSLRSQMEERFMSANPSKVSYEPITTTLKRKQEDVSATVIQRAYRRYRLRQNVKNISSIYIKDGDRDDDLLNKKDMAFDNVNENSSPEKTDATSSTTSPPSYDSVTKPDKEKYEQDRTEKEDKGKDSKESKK

Row | Molecule | IC50 [1] | IC50 [2] | further results
1 | B1 |  |  | inhibitory activity against NaV1.7 at 10 nM (in words) (10 nM Ab-PEG3-ASF): essentially no inhibitory activity
2 | B2 | 6.48 nM and 6.5 nM |  | inhibition rate of NaV1.7 at 10 nM (10 nM Ab-PEG3-ASF): about 60%
3 | B3 |  | 1.22 ± 0.534 nM | 
4 | B4 |  | 1.13 ± 0.191 nM | 
5 | B5 | 0.0395 ± 0.00968 nM |  | 
6 | B6 | 0.138 ± 0.0414 nM |  | 

Reference: patent US20260151499A1, “ANTIBODY DERIVATIVE AND USE THEREOF” (TSINGHUA UNIVERSITY, priority 2023, published 2026)
